Assays:
[1] = target: GM-CSF receptor on TF-1 cells (human (endogenous in TF-1)) (UniProt P32927); assay: radioligand binding
[2] = target: GM-CSF receptor on human CD34+ cord blood cells (human (endogenous in CD34+ cord blood cells)) (UniProt P32927); assay: radioligand binding

percent by which the IC50 is less than for full-length GM-CSF [1] [%]	KD of the high-affinity site [2] [nM]	Substance
88	–	unlabeled DPP4-truncated recombinant human GM-CSF (ligand)
–	0.734	DPP4-truncated recombinant human [125I]-GM-CSF (ligand)
